The values below come from US20120308570A1, “METHODS FOR TREATING DISEASES” (priority 2009, published 2012).

Usually Kd stands for the free concentration of one partner at which half of the binding sites on the other are occupied at equilibrium, for simple one-to-one binding.

Where a chain is given by its changes, count along the chain named.

In assay [1] the target is T1, Y120A-SSB-2ΔSB (murine SSB-2 residues 12-224 with tyrosine 120 mutated to alanine) (mouse, UniProt O88838 12-224).
T1 construct: also called SSB-2-Y120A
T1 chain: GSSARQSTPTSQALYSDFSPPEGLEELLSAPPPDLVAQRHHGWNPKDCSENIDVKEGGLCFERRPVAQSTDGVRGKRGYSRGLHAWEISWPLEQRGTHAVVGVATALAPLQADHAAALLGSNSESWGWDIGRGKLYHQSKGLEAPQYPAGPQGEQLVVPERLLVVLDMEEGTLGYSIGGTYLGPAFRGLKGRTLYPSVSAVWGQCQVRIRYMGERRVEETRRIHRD
Description: ITC, 25 C, wild-type peptide with Y120A-SSB-2ΔSB. On the procedure:
(§1) FIG. 3. Typical ITC raw data and titration curves for SSB-2 and iNOS peptide interactions. Titration curves were fitted using the “One Set of Sites” model in MicroCal Origin.
(§2) Wild-type and mutant iNOS peptides (Table 2), corresponding to Lys19-Thr31 of mouse iNOS, were synthesized by GL Biochem (Shanghai) Ltd. These peptides were N-terminal acetylated and C-terminal amidated. All ITC measurements were carried out at 25° C. using a Microcal omega VP-ITC (Microcal Inc., Northampton, Mass.). SSB-2ΔSB was dialysed against buffer (100 mM TrisHCl, 150 mM NaCl, pH 8.0), and wild-type and mutant iNOS N-terminal peptides were prepared in the same buffer from 5 mM stocks. Solutions of 5 to 10 μM SSB-2ΔSB in the cell were titrated by injection of a total of 290 μL of 50-200 μM of iNOS peptides. Data analysis was performed using the evaluation software, MicroCal Origin version 5.0. All curves were fitted using the nonlinear least-squares fitter and the “One Set of Sites” model.
(Isothermal titration calorimetry measures the heat released or taken up as one component is titrated into another.)

Assay [2] addresses T2, SSB-2ΔSB (recombinant murine SSB-2 SPRY domain, residues 12-224) (mouse, UniProt O88838 12-224).
T2 construct: 226 residues in total; expressed as GST fusion in E. coli, GST cleaved off with thrombin; 15N-labelled for NMR; coupled to NHS-Sepharose for pull-downs; also called SPSB2
T2 sequence: T1 chain with A115Y
Description: ITC, 25 C, peptide injected into SSB-2ΔSB. The procedure:
as §1, §2

Assay [3] has as its target T1, Y120A-SSB-2ΔSB (murine SSB-2 residues …). The experiment in a line: ITC. On the procedure:
as §2
(§3) Mutation of Glu21 had no effect on SSB-2:iNOS peptide binding. […] Binding of an SSB-2-SPRY domain in which tyrosine 120 had. been mutated to alanine (Y120A-SSB-2ΔSB) was assessed by ITC.

The target in assay [4] is T2, SSB-2ΔSB (recombinant murine SSB-2 SPRY …). Description: ITC. The procedure:
as §2, §3

In assay [5] the target is T3, full-length iNOS protein (endogenous, from LPS/IFNγ-treated mouse bone marrow-derived macrophages) (mouse, UniProt P29477 1-1144).
T3 construct: Not purified: present in macrophage lysates; Detected by Western blot with anti-iNOS antibody; also called NOS2; inducible nitric oxide synthase
T3 sequence: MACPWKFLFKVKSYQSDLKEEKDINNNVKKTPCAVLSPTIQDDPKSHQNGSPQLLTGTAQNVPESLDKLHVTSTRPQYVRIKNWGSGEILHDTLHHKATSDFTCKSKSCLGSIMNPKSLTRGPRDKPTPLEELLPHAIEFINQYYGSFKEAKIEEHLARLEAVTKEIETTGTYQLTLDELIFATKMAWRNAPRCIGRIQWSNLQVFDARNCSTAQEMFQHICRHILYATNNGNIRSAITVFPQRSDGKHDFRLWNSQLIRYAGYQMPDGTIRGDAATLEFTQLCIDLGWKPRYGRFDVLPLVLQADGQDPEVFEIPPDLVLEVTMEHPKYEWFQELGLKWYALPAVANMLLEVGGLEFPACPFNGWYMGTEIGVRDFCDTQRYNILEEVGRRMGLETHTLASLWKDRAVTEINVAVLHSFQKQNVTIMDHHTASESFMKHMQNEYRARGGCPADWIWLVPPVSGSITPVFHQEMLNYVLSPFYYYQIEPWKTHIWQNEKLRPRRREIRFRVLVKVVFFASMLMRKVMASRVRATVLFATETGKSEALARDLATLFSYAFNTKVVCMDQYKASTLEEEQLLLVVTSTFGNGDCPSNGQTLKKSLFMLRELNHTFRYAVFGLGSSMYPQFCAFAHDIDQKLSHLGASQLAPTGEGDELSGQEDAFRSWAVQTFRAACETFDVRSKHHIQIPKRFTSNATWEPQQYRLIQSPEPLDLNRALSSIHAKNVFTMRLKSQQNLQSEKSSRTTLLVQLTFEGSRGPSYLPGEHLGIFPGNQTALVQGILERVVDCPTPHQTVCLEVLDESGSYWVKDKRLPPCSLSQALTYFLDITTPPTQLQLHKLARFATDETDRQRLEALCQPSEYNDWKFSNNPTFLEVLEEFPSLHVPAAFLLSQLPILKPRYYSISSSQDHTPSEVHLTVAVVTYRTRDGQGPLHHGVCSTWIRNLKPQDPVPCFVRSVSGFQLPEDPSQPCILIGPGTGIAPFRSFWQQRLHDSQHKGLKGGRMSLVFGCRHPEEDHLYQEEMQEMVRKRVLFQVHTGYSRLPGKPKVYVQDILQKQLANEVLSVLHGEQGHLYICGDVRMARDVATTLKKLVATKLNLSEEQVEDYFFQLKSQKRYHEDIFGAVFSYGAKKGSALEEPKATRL
Description: anti-SSB-2 immunoprecipitation from BMDM, anti-iNOS Western blot (FIG. 5B). The procedure:
FIG. 5. SSB-2 interacts with endogenous full-length iNOS protein. (A) SSB-2 interacts with full-length iNOS and this requires tyrosine 120 in the SPRY domain peptide-binding surface. Bone marrow-derived macrophages (BMDM) from C57BL/6 mice were incubated with 20 ng/ml IFNγ and 1 μg/ml LPS for 16 h, lysed and incubated with NHS-sepharose beads coupled with recombinant SSB-2 or SSB-2-Y120A proteins, or with uncoupled NHS-sepharose beads (CON), for 3 h at 4° C. Associated proteins were then separated by SDS-PAGE and transferred to PVDF membrane. iNOS was detected by Western blot with specific anti-iNOS antibodies (upper panel). Equivalent amounts of SSB-2 and SSB-2-Y120A were confirmed by reprobe with anti-SSB-2 antibodies (lower panel). (B) Interaction between endogenous iNOS and SSB-2 proteins. Bone marrow-derived macrophages from SSB-2-deficient mice (Ssb-2^{-/-}) or wild-type littermate controls (Ssb-2^{+/+}) were incubated with (+) or without (−) 20 ng/ml IFNγ and 20 ng/ml LPS for 16 h, lysed and endogenous SSB-2 proteins immunoprecipitated using rabbit anti-SSB-2 antibody coupled to NHS-Sepharose. Immunoprecipitates were separated by SDS-PAGE and associated iNOS protein detected by Western blot with specific antibodies (upper panel). […]
For orientation: Immunoblotting shows a protein as a band on a membrane.

In assay [6] the target is T3, full-length iNOS protein (endogenous, …). The experiment in a line: anti-Flag co-immunoprecipitation from mixed 293T and BMDM lysates, anti-iNOS Western blot. The text has this: FIG. 6. Interaction between iNOS and SSB-1, -2, and -4 and SSB-2 residues affecting 10 iNOS binding. (A) iNOS interacts preferentially with SSB-2 and SSB-4. 293T cells were transiently transfected with vector alone or cDNA encoding either Flag-tagged SSB-1, SSB-2, SSB-3 or SSB-4. Cells were lysed, and mixed with BMDM lysates from cells induced to express iNOS. Flag-tagged proteins were immunoprecipitated using anti-Flag antibodies (M2-beads) and separated by SDSPAGE. Co-immunoprecipitation of iNOS was detected by Western blot with anti-iNOS antibodies (upper panel). Membranes were stripped and reprobed with rat anti-Flag antibodies (middle panel). Comparative expression of Flag-tagged proteins in 293T lysates is shown by Western blot (lower panel). (B) SSB-2 residues affecting iNOS binding. Residues in the SSB-2 SPRY domain were mutated to Ala or Phe (for Y120) based on SSB-2 structure and sequence conservation. […] Coimmunoprecipitation of iNOS was detected by Western blot with anti-iNOS antibodies.
To investigate whether other SSB family members were able to interact with iNOS, 293T cells were transiently transfected with cDNA expressing SSB-1, SSB-2, SSB-3 or SSB-4 with an N-terminal Flag-epitopetag. […] SSB proteins were immunoprecipitated using anti-Flag antibodies coupled to Sepharose and association of iNOS analysed by Western blot. […]

B1: iNOS N-terminal peptide I, wild-type, Ac-KEEKDINNNVKKT-NH2 (peptide)
peptide: Ac-KEEKDINNNVKKT-NH2
notes: Synthetic peptide (GL Biochem); also called wild-type iNOS peptide; iNOS peptide
Consider B1, for which the values for the Kd in assay [1] and in assay [2] were 76300 nM and 13.3 nM, respectively. In assay [3], the “fold reduced affinity against SSB-2ΔSB” value is about 5000 fold.

B2: iNOS N-terminal peptide XV, Ac-KEEADINNNAKAT-NH2 (peptide)
peptide: Ac-KEEADINNNAKAT-NH2
For B2, the dissociation constant (Kd) in assay [2] amounted to 311 nM. Besides, the “fold decrease of binding affinity against the wild-type peptide” value in assay [4] is about 24 fold.

B3: iNOS N-terminal peptide XIII, Ac-KEEKDINNNVKAT-NH2 (peptide)
peptide: Ac-KEEKDINNNVKAT-NH2
On to B3, for which the Kd in assay [2] is 29.8 nM. In addition, in assay [4], the “fold lower binding affinity than the wild-type peptide” value was found to be 2 fold.

B4: iNOS N-terminal peptide XII, Ac-KEEKDINNNAKKT-NH2 (peptide)
peptide: Ac-KEEKDINNNAKKT-NH2
Consider B4, for which, in assay [2], the Kd is 56.8 nM. Also, the “fold lower binding affinity than the wild-type peptide” value in assay [4] lay in the range of 2 to 4 fold.

B5: endogenous SSB-2 protein (mouse bone marrow-derived macrophages) (other)
chain: MGQTALARGSSSTPTSQALYSDFSPPEGLEELLSAPPPDLVAQRHHGWNPKDCSENIDVKEGGLCFERRPVAQSTDGVRGKRGYSRGLHAWEISWPLEQRGTHAVVGVATALAPLQADHYAALLGSNSESWGWDIGRGKLYHQSKGLEAPQYPAGPQGEQLVVPERLLVVLDMEEGTLGYSIGGTYLGPAFRGLKGRTLYPSVSAVWGQCQVRIRYMGERRVEEPQSLLHLSRLCVRHALGDTRLGQISTLPLPPAMKRYLLYK
notes: Immunoprecipitated with rabbit anti-SSB-2 antibody coupled to NHS-Sepharose; also called SPSB2
With B5, the binding result in assay [5] is reported as “binds”.

B6: Flag-tagged SSB-3 (murine, expressed in 293T cells) (other, mouse)
chain: DYKDDDDKMARRTRSSRAWHFVLSAARRDTDARAVALAGSSNWGYDSDGQHSDSDSDPEYSSLPPSIPSAVPVTGESFCDCEGQNEATFCNSLHTAHRGKDCRCGEEDEDFDWVWDDLNKSSATLLSCDNRKVSFHMEYSCGTAAIRGTKELGDGQHFWEIKMTSPVYGTDMMVGIGTSDVDLDKYHHTFCSLLGRDEDSWGLSYTGLLHHKGDKTSFSSRFGQGSIIGVHLDTWHGTLTFFKNRKCIGVAATRLQNRRFYPMVCSTAAKSSMKVIRSCASSTSLQYLCCYRLRQLRPNSGDTLEGLPLPPGLKQVLHNKLGWVLSMNCNHWKSPVPPPGTATPGAESLETRPCQRKRCRRS
notes: also called SPSB3
For B6, the binding result in assay [6] is “no binding”.
